This passage reports Kd results from patent US20230151095A1 (published 2023).

Numbering of substitutions follows the chain as printed.

T1: XENP23311 (His-tagged NKG2D-Fc) (human, UniProt P26718 78-216)
T1 chain: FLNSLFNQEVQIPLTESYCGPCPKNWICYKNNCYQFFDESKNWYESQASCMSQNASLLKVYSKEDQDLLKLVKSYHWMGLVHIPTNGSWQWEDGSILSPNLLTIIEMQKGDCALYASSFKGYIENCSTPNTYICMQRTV

B1: XENP40372 (1D2B4, 1+1 VHVL) (antibody)
chain 1: EVQLLESGGGLVQPGGSLRLSCAVSGFSLSSYGVIWVRQAPGKGLEYVSWVSSGGSTNYASSVKGRFTISRDTSKNTVYLQMNSLRAEDTAVYFCARGATNSGTDIWGPGTLVTVSSASTKGPSVFPLAPSSKSTSGGTAALGCLVKDYFPEPVTVSWNSGALTSGVHTFPAVLQSSGLYSLSSVVTVPSSSLGTQTYICNVNHKPSDTKVDKKVEPKSCDKTHTCPPCPAPELLGGPSVFLFPPKPKDTLMISRTPEVTCVVVDVSHEDPEVKFNWYVDGVEVHNAKTKPREEEYNSTYRVVSVLTVLHQDWLNGKEYKCKVSNKALPAPIEKTISKAKGQPREPQVYTLPPSREEMTKNQVSLTCDVSGFYPSDIAVEWESDGQPENNYKTTPPVLDSDGSFFLYSKLTVDKSRWEQGDVFSCSVMHEALHNHYTQKSLSLSPGK
chain 2: not shown
chain 3: DIVMTQSPSSLSASVGDRVTITCRASQSINSWLSWYQQKPGKPPKLLIYGASNLASGVPSRFKGSGSGTDFTLTISSLQPEDFATYYCQNNYGIIAAGATFGGGTKVEIKRTVAAPSVFIFPPSDEQLKSGTASVVCLLNNFYPREAKVQWKVDNALQSGNSQESVTEQDSKDSTYSLSSTLTLSKADYEKHKVYACEVTHQGLSSPVTKSFNRGEC
B2: XENP41340 (1D7B4, 2+1 VLVH) (antibody)
chain 1: B1 chain 1
chain 2: not shown
chain 3: B1 chain 3
B3: XENP40457 (LB_1002, 1+1 VHVL) (antibody)
chain 1: B1 chain 1
chain 2: not shown
chain 3: B1 chain 3
B4: XENP40381 (LB_1001, 1+1 VHVL) (antibody)
chain 1: B1 chain 1
chain 2: not shown
chain 3: B1 chain 3
B5: XENP40587 (1D2B4, 2+1 VHVL) (antibody)
chain 1: B1 chain 1
chain 2: not shown
chain 3: B1 chain 3
B6: XENP40555 (1D2B4, mAb-scFv VHVL) (antibody)
chain 1: B1 chain 1
chain 2: not shown
chain 3: B1 chain 3
B7: XENP41334 (LB_1002, 1+1 VLVH) (antibody)
chain 1: B1 chain 1
chain 2: not shown
chain 3: B1 chain 3
B8: XENP41339 (1D2B4, 2+1 VLVH) (antibody)
chain 1: B1 chain 1
chain 2: not shown
chain 3: B1 chain 3
B9: XENP41337 (LB_1001, 2+1 VLVH) (antibody)
chain 1: B1 chain 1
chain 2: not shown
chain 3: B1 chain 3
B10: XENP41022 (antibody)
chain 1: B1 chain 1 with S239D, I332E
chain 2: EVQLLESGGGLVQPGGSLRLSCAVSGFSLSSYGVIWVRQAPGKGLEYVSWVSSGGSTNYASSVKGRFTISRDTSKNTVYLQMNSLRAEDTAVYFCARGATNSGTDIWGPGTLVTVSSGKPGSGKPGSGKPGSGKPGSDIVMTQSPSSLSASVGDRVTITCRASQSINSWLSWYQQKPGKPPKLLIYGASNLASGVPSRFKGSGSGTDFTLTISSLQPEDFATYYCQNNYGIIAAGATFGGGTKVEIKEPKSSDKTHTCPPCPAPELLGGPDVFLFPPKPKDTLMISRTPEVTCVVVDVSHEDPEVKFNWYVDGVEVHNAKTKPREEQYNSTYRVVSVLTVLHQDWLNGKEYKCKVSNKALPAPEEKTISKAKGQPREPQVYTLPPSREQMTKNQVKLTCLVKGFYPSDIAVEWESNGQPENNYKTTPPVLDSDGSFFLYSKLTVDKSRWQQGNVFSCSVMHEALHNHYTQKSLSLSPGK
chain 3: B1 chain 3
B11: XENP41027 (antibody)
chain 1: B1 chain 1
chain 2: B10 chain 2 with D271S
chain 3: B1 chain 3
B12: XENP41021 (antibody)
chain 1: B1 chain 1
chain 2: not shown
chain 3: B1 chain 3
B13: XENP41030 (antibody)
chain 1: B1 chain 1 with I332E
chain 2: not shown
chain 3: B1 chain 3
B14: XENP41028 (antibody)
chain 1: B1 chain 1 with S239D, I332E
chain 2: not shown
chain 3: B1 chain 3
B15: XENP41034 (antibody)
chain 1: B1 chain 1 with I332E
chain 2: B10 chain 2
chain 3: B1 chain 3
B16: XENP41031 (antibody)
chain 1: B1 chain 1 with S239D, I332E
chain 2: B10 chain 2 with E364I
chain 3: B1 chain 3
B17: XENP41035 (antibody)
chain 1: B1 chain 1 with S239D
chain 2: B10 chain 2 with D271S
chain 3: B1 chain 3
B18: XENP41033 (antibody)
chain 1: B1 chain 1 with S239D
chain 2: B10 chain 2
chain 3: B1 chain 3
B19: XENP41025 (antibody)
chain 1: B1 chain 1
chain 2: B10 chain 2
chain 3: B1 chain 3

Chain of CD16 (P08637 17-208): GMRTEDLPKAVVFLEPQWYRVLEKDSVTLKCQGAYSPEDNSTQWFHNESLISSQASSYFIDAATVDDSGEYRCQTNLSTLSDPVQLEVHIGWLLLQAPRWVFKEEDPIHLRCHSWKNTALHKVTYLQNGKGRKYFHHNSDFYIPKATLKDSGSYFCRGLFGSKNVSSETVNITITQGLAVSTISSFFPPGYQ

The first test has as its target T1, XENP23311 (His-tagged NKG2D-Fc). The experiment in a line: Octet. A general note: BLI is a label-free optical method that tracks binding on a fibre tip over time.
For the molecule B1, the Kd (commonly the constant that tells how readily two partners part at equilibrium) was found to be 35.7 nM.
Still for that read-out and setting: with B2 the figure was 18.4 nM; with B3, 458 nM; with B4, 84.5 nM.
Still for that read-out and setting: with B5 the figure was 59.8 nM; with B6, 83.8 nM; with B7, 97.3 nM.
Same read-out and setting: with B8 the figure was 83.1 nM.
Consider B9, for which the dissociation constant Kd came to 278 nM.

A further test has as its target CD16 (UniProt P08637 17-208).
Assay: not given
Consider B10, for which binding was put at a Kd of 28.9 nM.
Same read-out and setting: the result for B11 reads 242 nM.
The molecule B12 gave a dissociation constant (Kd) of 417 nM.
The same measure, in the same setting: with B13 the figure was 203 nM.
Still for that read-out and setting: with B14 the figure was 120 nM; with B15, 64.6 nM; with B16, 55.2 nM.
On the same count and under the same terms, with B17 the figure was 100 nM.
The molecule B18 gave an equilibrium dissociation constant (Kd) of 59.9 nM.
For the molecule B19, binding was put at a Kd of 136 nM.
